Assay results published in the MegaScale stability set (Tsuboyama et al. 2023).

B1: r4_43_TrROS_Hall (parent)
chain: DLVTIKVPLENLEEIKKAAEKAGFKIVSISYDKENKEVTIVIEKKK

Variants of: B1
Assay: folding stability dG (cDNA display proteolysis); higher = more stable
Conditions: PBS, room temperature

Going from DLVTIKVPLENLEEIKKAAEKAGFKIVSISYDKENLEVTIVIEKKK [K36L] to DLVTIKVPLENLEEIKKAAEKAGFKIVSISYDKENYEVTIVIEKKK [K36Y], the “folding stability dG” value falls from 3.71 kcal/mol to 3.61 kcal/mol.

Compared with DLVTIKVPLENLEEIKKAAEKAGFKIVSISYDKENGEVTIVIEKKK [K36G], DLVTIKVPLENLEEIKKAAEKAGFKIVSISYDKENSEVTIVIEKKK [K36S] is lower in “folding stability dG” value: 3.64 kcal/mol for the first, 3.46 kcal/mol for the second.

Compared with DLVTIKVPLENLEEIKKAAEKAGFKIVSISYDKENNEVTIVIEKKK [K36N], DLVTIKVPLENLEEIKKAAEKAGFKIVSISYDKENPEVTIVIEKKK [K36P] is lower in “folding stability dG” value: 3.51 kcal/mol for the first, 3.39 kcal/mol for the second.

Compared with DLVTIKVPLENLEEIKKAAEKAGFKIVSISYDKENIEVTIVIEKKK [K36I], DLVTIKVPLENLEEIKKAAEKAGFKIVSISYDKENWEVTIVIEKKK [K36W] is higher in “folding stability dG” value: 3.54 kcal/mol for the first, 3.66 kcal/mol for the second.

Compared with DLVTIKVPLENLEEIKKAAEKAGFKIVSISYDKENCEVTIVIEKKK [K36C], DLVTIKVPLENLEEIKKAAEKAGFKIVSISYDKENTEVTIVIEKKK [K36T] is higher in “folding stability dG” value: 3.19 kcal/mol for the first, 3.48 kcal/mol for the second.

First: DLVTIKVPLENLEEIKKAAEKAGFKIVSISYDKENREVTIVIEKKK [K36R]
Second: DLVTIKVPLENLEEIKKAAEKAGFKIVSISYDKENQEVTIVIEKKK [K36Q]
The “folding stability dG” value of the first is higher: 3.88 kcal/mol for the first, 3.48 kcal/mol for the second.

Going from DLVTIKVPLENLEEIKKAAEKAGFKIVSISYDKENVEVTIVIEKKK [K36V] to DLVTIKVPLENLEEIKKAAEKAGFKIVSISYDKENAEVTIVIEKKK [K36A], the “folding stability dG” value rises from 3.32 kcal/mol to 3.57 kcal/mol.

DLVTIKVPLENLEEIKKAAEKAGFKIVSISYDKENEEVTIVIEKKK [K36E] and DLVTIKVPLENLEEIKKAAEKAGFKIVSISYDKENMEVTIVIEKKK [K36M] are the same in “folding stability dG” value: 3.22 kcal/mol for the first, 3.22 kcal/mol for the second.

First: DLVTIKVPLENLEEIKKAAEKAGFKIVSISYDKENFEVTIVIEKKK [K36F]
Second: DLVTIKVPLENLEEIKKAAEKAGFKIVSISYDKENHEVTIVIEKKK [K36H]
The “folding stability dG” value of the first is higher: 3.48 kcal/mol for the first, 3.4 kcal/mol for the second.

First: DLVTIKVPLENLEEIKKAAEKAGFKIVSISYDKENDEVTIVIEKKK [K36D]
Second: DLVTIKVPLENLEEIKKAAEKAGFKIVSISNDKENKEVTIVIEKKK [Y31N]
The “folding stability dG” value of the first is higher: 3.28 kcal/mol for the first, 2.95 kcal/mol for the second.

Compared with DLVTIKVPLENLEEIKKAAEKAGFKIVSISPDKENKEVTIVIEKKK [Y31P], DLVTIKVPLENLEEIKKAAEKAGFKIVSISIDKENKEVTIVIEKKK [Y31I] is higher in “folding stability dG” value: 2.97 kcal/mol for the first, 3.27 kcal/mol for the second.

First: DLVTIKVPLENLEEIKKAAEKAGFKIVSISGDKENKEVTIVIEKKK [Y31G]
Second: DLVTIKVPLENLEEIKKAAEKAGFKIVSISMDKENKEVTIVIEKKK [Y31M]
The “folding stability dG” value of the first is lower: 2.76 kcal/mol for the first, 3.19 kcal/mol for the second.

Going from DLVTIKVPLENLEEIKKAAEKAGFKIVSISRDKENKEVTIVIEKKK [Y31R] to DLVTIKVPLENLEEIKKAAEKAGFKIVSISWDKENKEVTIVIEKKK [Y31W], the “folding stability dG” value rises from 3.39 kcal/mol to 3.55 kcal/mol.

Compared with DLVTIKVPLENLEEIKKAAEKAGFKIVSISTDKENKEVTIVIEKKK [Y31T], DLVTIKVPLENLEEIKKAAEKAGFKIVSISSDKENKEVTIVIEKKK [Y31S] is lower in “folding stability dG” value: 3.15 kcal/mol for the first, 2.83 kcal/mol for the second.

First: DLVTIKVPLENLEEIKKAAEKAGFKIVSISKDKENKEVTIVIEKKK [Y31K]
Second: DLVTIKVPLENLEEIKKAAEKAGFKIVSISQDKENKEVTIVIEKKK [Y31Q]
The “folding stability dG” value of the first is higher: 3.34 kcal/mol for the first, 3.23 kcal/mol for the second.

Compared with DLVTIKVPLENLEEIKKAAEKAGFKIVSISHDKENKEVTIVIEKKK [Y31H], DLVTIKVPLENLEEIKKAAEKAGFKIVSISVDKENKEVTIVIEKKK [Y31V] is higher in “folding stability dG” value: 3.41 kcal/mol for the first, 3.47 kcal/mol for the second.

Going from DLVTIKVPLENLEEIKKAAEKAGFKIVSISLDKENKEVTIVIEKKK [Y31L] to DLVTIKVPLENLEEIKKAAEKAGFKIVSISYDKQNKEVTIVIEKKK [E34Q], the “folding stability dG” value rises from 3.12 kcal/mol to 3.89 kcal/mol.

Going from DLVTIKVPLENLEEIKKAAEKAGFKIVSISYDKANKEVTIVIEKKK [E34A] to DLVTIKVPLENLEEIKKAAEKAGFKIVSISYDKVNKEVTIVIEKKK [E34V], the “folding stability dG” value rises from 3.48 kcal/mol to 3.72 kcal/mol.

Compared with DLVTIKVPLENLEEIKKAAEKAGFKIVSISYDKTNKEVTIVIEKKK [E34T], DLVTIKVPLENLEEIKKAAEKAGFKIVSISYDKMNKEVTIVIEKKK [E34M] is lower in “folding stability dG” value: 3.77 kcal/mol for the first, 3.74 kcal/mol for the second.

First: DLVTIKVPLENLEEIKKAAEKAGFKIVSISYDKRNKEVTIVIEKKK [E34R]
Second: DLVTIKVPLENLEEIKKAAEKAGFKIVSISYDKDNKEVTIVIEKKK [E34D]
The “folding stability dG” value of the first is higher: 3.84 kcal/mol for the first, 3.75 kcal/mol for the second.

Going from DLVTIKVPLENLEEIKKAAEKAGFKIVSISYDKSNKEVTIVIEKKK [E34S] to DLVTIKVPLENLEEIKKAAEKAGFKIVSISYDKFNKEVTIVIEKKK [E34F], the “folding stability dG” value falls from 3.86 kcal/mol to 3.67 kcal/mol.

Going from DLVTIKVPLENLEEIKKAAEKAGFKIVSISYDKGNKEVTIVIEKKK [E34G] to DLVTIKVPLENLEEIKKAAEKAGFKIVSISYDKWNKEVTIVIEKKK [E34W], the “folding stability dG” value rises from 3.8 kcal/mol to 3.96 kcal/mol.

First: DLVTIKVPLENLEEIKKAAEKAGFKIVSISYDKLNKEVTIVIEKKK [E34L]
Second: DLVTIKVPLENLEEIKKAAEKAGFKIVSISYDKCNKEVTIVIEKKK [E34C]
The “folding stability dG” value of the first is higher: 4.04 kcal/mol for the first, 3.63 kcal/mol for the second.

First: DLVTIKVPLENLEEIKKAAEKAGFKIVSISYDKNNKEVTIVIEKKK [E34N]
Second: DLVTIKVPLENLEEIKKAAEKAGFKIVSISYDKPNKEVTIVIEKKK [E34P]
The “folding stability dG” value of the first is higher: 3.77 kcal/mol for the first, 3.68 kcal/mol for the second.

Compared with DLVTIKVPLENLEEIKKAAEKAGFKIVSISYDKHNKEVTIVIEKKK [E34H], DLVTIKVPLENLEEIKKAAEKAGFKIVSISYDKYNKEVTIVIEKKK [E34Y] is lower in “folding stability dG” value: 3.92 kcal/mol for the first, 3.81 kcal/mol for the second.

Going from DLVTIKVPLENLEEIKKAAEKAGFKIVSISYDKINKEVTIVIEKKK [E34I] to DLVTIKVPLENLEEIKKAAEKAGFKIVSISYDKKNKEVTIVIEKKK [E34K], the “folding stability dG” value falls from 3.88 kcal/mol to 3.83 kcal/mol.

Going from DLVTIKVPLENLEEIKKAAEKAGFKIVSISYDKENKCVTIVIEKKK [E37C] to DLVTIKVPLENLEEIKKAAEKAGFKIVSISYDKENKFVTIVIEKKK [E37F], the “folding stability dG” value rises from 3.8 kcal/mol to 3.93 kcal/mol.

Going from DLVTIKVPLENLEEIKKAAEKAGFKIVSISYDKENKAVTIVIEKKK [E37A] to DLVTIKVPLENLEEIKKAAEKAGFKIVSISYDKENKDVTIVIEKKK [E37D], the “folding stability dG” value falls from 3.75 kcal/mol to 3.49 kcal/mol.
